Source: the supplement of paper PMC9942255
Where “and” joins values, the source holds several entries; their conditions need not be identical. Equal values may be shown once.

Test system: Bacillus subtilis DB104 (SP-AmyQ fusion secretion)
Assay: AmyQ secretion efficiency, weighted average sort bin (1 = best secretion, 10 = worst) (bin number (weighted average, 1-10)); higher = lower secretion efficiency
Method in brief: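 Secretion score gives the read-frequency-weighted average bin number, normalised to beads per bin, with low-abundance sequences left out. A B. subtilis DB104 library expressing mature AmyQ fused to designed signal peptides, integrated at amyE, was encapsulated with fluorescein-starch at about 0.3 cells per ~65 nL alginate bead. Beads were grown about 13 h at room temperature, stained with nile red, and the occupied ones were sorted by large-particle flow cytometry into 10 equally populated bins by green/red fluorescence ratio before the amplicons from each bin were Illumina-sequenced.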

Sequence | AmyQ secretion efficiency
MKKWIYVVLVLSIAGIGGFSVHWASS | 7.53
MFNRLFRVCFLAALIMAFTLPNSWYAQKP | 7.03
MKRMIVRMTLPLLIVCLAFSSFSASAPVGARAASE | 2.02
MKKLLAAGIIGLLTVSIASPVFAAEK | 2.43
MSGSSVMMLALTAAAGLGLTALHSAPAAKAAPL | 2.7
MRNLTKTSLLLAGLCTAAQMVFVTHASCEES | 4.5
MKKRLIAPMLLSAASLAFFAMSGSGQAAAY | 5.16
MKLSVKIALVLIVAAAAMTAKMYATAKGN | 3.77
MTTTSIFVITCVMAASLTLGSLLPAGYASAKED | 3.58
MNTAIIIAIIAAVIVIAALITFNVRNASPG | 8.06
MKKAAAVLLSLGLVFGFSYGAEAKTK | 2.21
MLKKKWMVGLLAGCLAAGGFSYNAFTTEN | 6.95
MKKKKYVVLVLSIAGIGGFSVHAASS | 6.5
MKRSISIFITCLLITLLKRKKRRASPASAAGT | 6.57
MKVPKTMLKRTAAGLLLSLTATSVSAHYV | 4.94
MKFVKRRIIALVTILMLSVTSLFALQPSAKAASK | 2.32
MKLWMRKTLVVLFTIVTFGLVSPPAALMGDKP | 4.12
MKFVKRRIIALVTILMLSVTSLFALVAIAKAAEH | 4.46
MFKFKKNFLVGLSAALMSIEDEEDDASAAST | 6.33
MPYLKRVLLLLVTGLFMSLFAVTATASMQTG | 1.29
MKQTRSKQSSFMLLAMTGQTALAKDV | 7.56
MTMLRKIIGWILLLCIIPLFAFTVIASAKEV | 4.98
MGGSIILLLAVIIAAAAAGVAFYV | 7.67
MKKVLMAFIICLSLILSVLAAPPSGAKAASE | 1.49
MFRLLVSLRVWMVFLMNWVTPDRKTAAAAVY | 7.07
MKLAKRVSALTPSTTLAITVKAKEL | 6.82

Sequence | AmyQ secretion efficiency
MKKVILAAFILVGSTLGAFSFSSDASAKHV | 2.08
MKKKRKKIAGVLTVAAAAMTAKMYATAKGN | 7.67
MKKKLAAGLTASAIVGTTLVVTPNEAATI | 6.96
MKKRFSLIMMTGLLFGLTSPAFARKK | 7.01
MKRFLIGAGVAAVILSGWFIADHQTHVQEM | 6.76
MGGGFSILIMMTGLLFGLTSPAFAAEK | 3.63
MKVLLSALLLLFEPSASGKKL | 7.48
MKWMCTKCCTYQQLAGGAAQAEAV | 7.81
MRNLTKTSLLLAGLCTAAQMVFVTHSTASAEES | 3.1
MAIIIAIIAAVIVIAALITFNVRNASPE | 6.75
MLKKIALTLCPAIVGSLLFFTAPASFHVS | 7.41
MLKKIALTLCPAIVGSLLFFTAPASEHVS | 6.03
MKKQQYGQSKKVVLGSTLFAGAASAQSI | 7.51
MKKKQVSHAIIISVMLSFVIAVFHTIHASYLTP | 6.98
MKIRKILLSSALSFGMLEDEVPALAAGT | 2.62
MFKKHTISLLIIFLLASAVLAKPIERHTV | 5.58
MNFMFTVVSALSISALALSVSGVASAHEI | 3.15
MKSKWMSGLLLVAVGFSFTQVMTSFFTPASPVHAGET | 6.76
MRKNRILALFVLSLGLLSFMVTPCSAASK | 2.01
MTKKAWFLPLVCVLLIRKKLAPAASASAQTT | 7.9
MKRIRIPMTYTGTAALTIAPLSFASAEEN | 7.36
MKVLLSALLLLLFAEASGKKL | 6.56
MGRIKTKITILLVLLLLLAGPYMYIN | 7.19
MRSYIKVLTMCFLGLILFVPTALPDNS | 7.02
MTKLKMLSMGKRRTASLFIFSSQALAVQY | 7.8
MKKCKRRKTTIALILSLSTNAFAKNT | 7.38

Sequence | AmyQ secretion efficiency
MKVLLSALLLLLFAFEPSASCKKL | 4.65
MKKKLAAGLTASAIVGTTLVVTPTEAATI | 2.75
MAIIIAIIAAVIVIAALITFNVRNLSPG | 7.04
MNLRKILLSSALSLGMLVSAAPFLATSS | 6.67
MHLIRAAGAVCLAVVLIAGCRFGSIIVSAEGENT | 5.81
MLCVMMLLFSAIASFPVSFTFPAFATAQAKDQ | 7.71
MTTKFTALAVFLLCFMPAAKIEHTQASLL | 4.17
MRKKRNVITCVMAASLTLGSLLPAGYASAKED | 3.03
MKKTTNVLMAFIICLSLILSVLAAPPSGAKAESV | 2.36
MLCVMMLLFSAIALFLVASFPVSAQAKDQ | 7.1
MKKTIMSFKRKKKKSTTAFGAHASAKEI | 6.45
MRKKLKWLSFLLGFIILLFLFKYQFSQNDS | 8.41
MKLSVKIAGVLTVAAAAMKATAKGN | 7.76
MMKQIITATTAVVLGSTLFAGAASAQSI | 2.49
MKKRLIAPMLLSAASLAFFAMSGSAQGAAY | 4.34
MFKKHTISLLIIFLLASAVLAKPIEADEE | 3.49
MAIIIAIIAAVIVIAALITFEDDEDDDRNASPG | 6.7
MKKIWIGMLAAAVLLLMVPKVMLADAA | 4.26
MKVPKTMNFSFTLLSTAAGLLLSLTATSVSAHYV | 5.47
MKRLLVSLRVWMVFLMPDRKTAAAAVY | 6.21
MLKKKWMVGLLAGCLAAGRKKKKKAFATEN | 7.31
MKKQIITATTAVVLGSTLFAGAASTQSI | 2.06
MHLIRAAGAVCLAVVLIRFNEDQHQAEGENT | 5.07
MKRIRIPMTLALGAALTIAPLTVATASFASAEEN | 4.63
MPYLKRKYRLLVTGLFMSLFAVTATASAQTG | 1.78
MKLAKRVRRKRPSTTLAITAKAKEL | 6.87

Sequence | AmyQ secretion efficiency
MKMKSGMEQAVSVLLLLSRLPVQASLTSR | 6.52
MKKTIMSFVAVAALSTTAFGAHASLKEI | 6.92
MKRSISIFITCLLITLLKRKGMIASPASAAGT | 5.06
MKLKKRVSMFLVALTMCGGLFVTPSFPPTAPAKAVKT | 5.25
MKKIVSILFMFGLVMGFSQFQPSTVFADED | 4.03
MLKKKWMVGLLAGCLAAGGFSYNGSFVAFATEN | 3.96
MLCVMMLLFSAIAKKRRKRAQAKDQ | 7.12
MKKLLAAGIIGLLTVEEESPSFAAEK | 6.63
MTKKAWFLPLVCVLLIVSWLASAASASAQTT | 2.08
MKLKSKLLLSCLALSTVFVATTIANEPTH | 7.21
MKKRKRRNFKRFIAAFLVLALMISLVPADVLKKST | 6.16
MKKIVSILFMFGLVMKKKQFQPSTVFAADK | 7.82
MKTKTLFIFSAILTLSIFAPNTTFAQTA | 2
MRSYIKSKKRCKQQLILFVPTALADNS | 7.44
MHLIRAAGAVCLAVVLIAGCRFNEDQHQFEGENT | 5.53
MKRSISKRKRCKKITLLTMGGMIASPASAAGT | 6.02
MRMLWRSRRKCKRRLTLAPCAQAAEP | 5.33
MKLSVKIAGVLTVAAAAMTAGMYATAKGN | 5.78
MKKRLIGFLVLVPALIMSGITLIEPNKK | 7.44
MLTKRLLTIYIMLLGLIKKKRKKAQAEEK | 7.57
MRGKSAVLLSLIMLIAGFLISFDFQM | 6.6
MKKIWIGMLAAAVLLLMVPKVSLAEDD | 4.09
MKKKQVMLALTAAAGLGLTALHSAPADKAAPL | 5.48
MKKKVKIAGVLTVAAAAMTAKMYATAKGN | 6.8
MILTKVLTGSVLSLGLLVSASPAFATSP | 1.75
MRNLTKTSLLLAGLCTAARRKKKKHASAEES | 7.09

Sequence | AmyQ secretion efficiency
MKSKWMSGLLLVAVGFSFTQVMVHIGET | 5.32
MRPVFPLILSAVLFLSCFRGARQTKASASKR | 7.54
MKKWRYTKRQRKLILAGIALFVFISPLKSHKT | 6.51
MKKIWIGMLAAAVLLLMVPKVSLADAA | 3.23 and 2.34 and 3.08
MRKKRVITCVMAASLTLGSLLAAAIATAKED | 3.82
MGLGKKLSVAVAASFMSLSISLPGWQAAEG | 5.06
MRKYTVRRKRKRSFLSVLSGGHHESKAFPV | 7.56
MKKGIIRFLLVSFVLFFALSTGITGVQAAPK | 1.02
MTKKAWFLPLVCVLLISGWLAPAASASWQTT | 3.5
MIRSISIFITCLLITLLTMGGMIASPASAAGT | 2.35
MKVLLSALLLLLFAEDEEEEASGKKL | 5.86
MLFKKWMVGLLAGCLAAGGFSYNAFATEN | 4.2
MKKLLAAGIIGLLTVFIAVPSFAAEK | 2.33
MRPVFPLKRSAVLFLSCFFGARQTEASASKR | 8.12
MSKGIIRFLLVSFVLFFALSTGITGVQAAPA | 2.19
MKRIRIPMTLALGAALTIAPLSASAEEN | 2.88
MKSCKQLIVCSLAAILLLDPQPSFAADS | 4.16
MARRRRRKAAVIVIAALITFNVRNASPG | 6.9
MTMLRKIIGWILLLCIIPLFAFTVIASFKEV | 6.97
MTMLSMIIGWILLLCIIPLFAFTVIASGKEV | 7.31
MAIIIAIIAAVIVIAALITFNVRNHSPG | 6.69
MKRLLSTLLIGIMLLVTFAPSAFAKQD | 2.15
MHLIRAKKRKCRAVVLIAGCRFNEDQHQAEGENT | 5.77
MKKCLLFLTTIALILRKRRKKAFAKNT | 7.29
